Results reported in paper PMC11864179 (Science Advances, 2025).
Non-standard residues stand in square brackets, D forms with d. No end group written: not given here. *: point of attachment. Biotin = O=C1N[C@H]2[C@H](CS[C@H]2CCCCC(=O)*)N1; pS = N[C@@H](COP(=O)(O)O)C(=O)O

Molecular target: T1, HTP-3–HIM-3 complex containing His6-tagged HTP-3 and wild-type HIM-3 (C. elegans, UniProt O01820 2-739; G5EBG0 1-291)
T1 sequence (looked up) 1: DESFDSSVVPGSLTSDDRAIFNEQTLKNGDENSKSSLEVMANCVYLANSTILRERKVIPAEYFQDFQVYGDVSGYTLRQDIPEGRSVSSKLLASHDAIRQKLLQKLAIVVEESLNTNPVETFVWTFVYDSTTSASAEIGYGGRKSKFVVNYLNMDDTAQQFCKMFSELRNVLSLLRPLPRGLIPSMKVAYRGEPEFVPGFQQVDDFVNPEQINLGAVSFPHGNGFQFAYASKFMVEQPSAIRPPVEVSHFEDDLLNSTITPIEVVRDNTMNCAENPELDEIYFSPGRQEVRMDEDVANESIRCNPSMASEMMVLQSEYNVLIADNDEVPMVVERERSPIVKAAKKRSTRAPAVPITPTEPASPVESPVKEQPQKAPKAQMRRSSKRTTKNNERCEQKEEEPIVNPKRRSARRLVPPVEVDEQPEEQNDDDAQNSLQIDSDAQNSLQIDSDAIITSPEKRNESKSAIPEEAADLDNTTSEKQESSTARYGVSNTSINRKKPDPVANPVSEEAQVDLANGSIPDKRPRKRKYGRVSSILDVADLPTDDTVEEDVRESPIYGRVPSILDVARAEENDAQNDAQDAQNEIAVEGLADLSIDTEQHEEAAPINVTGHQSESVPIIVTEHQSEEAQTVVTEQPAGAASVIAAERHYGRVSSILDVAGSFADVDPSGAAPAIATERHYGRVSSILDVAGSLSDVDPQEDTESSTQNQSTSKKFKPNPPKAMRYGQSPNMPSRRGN
T1 sequence (looked up) 2: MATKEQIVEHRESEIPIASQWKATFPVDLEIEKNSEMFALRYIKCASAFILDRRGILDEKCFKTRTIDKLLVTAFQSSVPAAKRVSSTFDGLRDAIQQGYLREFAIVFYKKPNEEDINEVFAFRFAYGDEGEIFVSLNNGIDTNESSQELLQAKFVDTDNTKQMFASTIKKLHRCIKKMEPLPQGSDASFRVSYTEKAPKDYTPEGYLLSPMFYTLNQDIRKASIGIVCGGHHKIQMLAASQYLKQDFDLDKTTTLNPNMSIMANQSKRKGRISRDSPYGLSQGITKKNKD
Assay: pull-down

B1: SYP-5 peptide spanning residues 528 to 547, phosphorylated at S541 (peptide)
peptide: Biotin-DDDLNDEEGDADQ[pS]IWGSDD
Does B1 bind?
Result: binds
